Results as given in patent publication US11667688B2, “Glucagon derivative and a composition comprising a long acting conjugate of the same” (HANMI PHARM. CO., LTD., priority 2015, dated 2023).
Bridge positions count the residues as written; N and C are the ends. Square brackets hold non-standard residues; d marks the D form. Ends that are not written are not given here. Aib = CC(C)(N)C(=O)O

Biological target: T1, human glucagon receptors (Homo sapiens, UniProt P47871)
T1 construct: a region corresponding to Open Reading Frame (ORF) in the cDNA; expressed in transfected cells
T1 sequence (P47871 26-477): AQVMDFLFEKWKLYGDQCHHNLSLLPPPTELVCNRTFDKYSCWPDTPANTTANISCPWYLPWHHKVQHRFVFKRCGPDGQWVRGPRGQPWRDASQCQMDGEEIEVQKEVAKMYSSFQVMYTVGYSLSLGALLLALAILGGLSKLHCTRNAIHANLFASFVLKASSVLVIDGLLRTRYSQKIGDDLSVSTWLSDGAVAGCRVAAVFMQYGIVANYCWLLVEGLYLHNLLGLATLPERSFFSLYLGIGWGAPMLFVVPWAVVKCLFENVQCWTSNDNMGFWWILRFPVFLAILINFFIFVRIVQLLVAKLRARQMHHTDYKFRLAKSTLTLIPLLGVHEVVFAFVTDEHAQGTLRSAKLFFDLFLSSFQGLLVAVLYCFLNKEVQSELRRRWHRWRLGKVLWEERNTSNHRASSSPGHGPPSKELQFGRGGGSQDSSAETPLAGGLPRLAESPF
Assay: cAMP activity of glucagon derivatives in CHO cell line transfected with human glucagon receptor (LANCE cAMP kit)
Type: cell-based
Settings: cAMP EC50 compared with that of native glucagon; CHO cells with human glucagon receptor
Method: PCR was performed using a region corresponding to Open Reading Frame (ORF) in the cDNA (OriGene Technologies, Inc., USA) of human glucagon receptor gene as a template along with the following forward and reverse primers (SEQ ID NOS: 47 and 48, respectively), which include each of the EcoRI and XhoI restriction sites.
The PCR product was cloned into a known animal cell expression vector, x0GC/dhfr, to prepare a recombinant vector x0GC/GCGR.
CHO DG44 cell line cultured in DMEM/F12 (10% FBS) medium was transfected with the recombinant vector x0GC/GCGR using LIPOFECTAMINE®, and cultured in a selection medium containing G418 (1 mg/mL) and methotraxate (10 nM).
Specifically, the transfected cell line was subcultured 3 to 4 times a week, aliquoted into a 384-well plate in an amount of 6×10^3 cell lines/well, and cultured for 24 hours. Native glucagon and glucagon derivatives were suspended in Hank's balanced salt solution (HBSS) buffer containing 0.5 mM of 3-isobutyl-1-methylxanthine (IBMX), 0.1% bovine serum albumin (BSA), and 5 mM 4-(2-hydroxyethyl)-1-piperazineethanesulfonic acid (HEPES) with the culture cells, at concentrations of 200 nM and 1600 nM, respectively, continuously subjected into a 4-fold dilution 10 times, applied to a cAMP assay kit (LANCE cAMP 384 kit, PerkinElmer), and added to the cultured cells, and their fluorescence value was measured.

In the case of “-SQGTFTSDYSKYLDECRAKEFVQWLMNT (bridge 15-19; also: name begins with '-': N-terminal residue before chain not given here) [SEQ ID NO: 32, glucagon derivative, no residue at position 1]”, the “In vitro Activity (Relative Activity of SEQ ID NO: 1, %)” value is reported as 0.7%.

In the case of “HSQGTFTSDYSKYLDCDRAQDFVQWLMNT (glucagon derivative) [SEQ ID NO: 2]”, the “In vitro Activity (Relative Activity of SEQ ID NO: 1, %)” value is reported as 0.6%.

For “HSQGTFTSDYSKYLDCERAQDFVQWLMNT (glucagon derivative) [SEQ ID NO: 3]”, the “In vitro Activity (Relative Activity of SEQ ID NO: 1, %)” value was 6.1%.

In the case of “HSQGTFTSDYSKYLDSCDAQDFVQWLMNT (glucagon derivative) [SEQ ID NO: 4]”, the “In vitro Activity (Relative Activity of SEQ ID NO: 1, %)” value is reported as under 0.1%.

With “HSQGTFTSDYSKYLDSCEADDFVQWLMNT (glucagon derivative) [SEQ ID NO: 6]” the “In vitro Activity (Relative Activity of SEQ ID NO: 1, %)” value was under 0.1%.

“HSQGTFTSDYSKYLDSCEAQDFVQWLMNT (glucagon derivative) [SEQ ID NO: 5]” was tested, and the “In vitro Activity (Relative Activity of SEQ ID NO: 1, %)” value was 0.3%.

For “WXQGTFTSDYSKCLDERRAKDFVQWLMNT (W[Aib]QGTFTSDYSKCLDERRAKDFVQWLMNT; bridge 16-20) [SEQ ID NO: 30, glucagon derivative, X = Aib]”, the “In vitro Activity (Relative Activity of SEQ ID NO: 1, %)” value was 0.3%.

For “WXQGTFTSDYSKYCDERRAKEFVQWLMNT (W[Aib]QGTFTSDYSKYCDERRAKEFVQWLMNT; bridge 16-20) [SEQ ID NO: 34, glucagon derivative, X = Aib]”, the “In vitro Activity (Relative Activity of SEQ ID NO: 1, %)” value was 0.2%.

In the case of “WXQGTFTSDYSKYLDECRAKDFVQWLMNT (W[Aib]QGTFTSDYSKYLDECRAKDFVQWLMNT; bridge 16-20) [SEQ ID NO: 26, glucagon derivative, X = Aib]”, the “In vitro Activity (Relative Activity of SEQ ID NO: 1, %)” value is reported as 1.0%.

With “WXQGTFVSDYSKYLDECRAKDFVQWLMNT (W[Aib]QGTFVSDYSKYLDECRAKDFVQWLMNT; bridge 16-20) [SEQ ID NO: 28, glucagon derivative, X = Aib]” the “In vitro Activity (Relative Activity of SEQ ID NO: 1, %)” value was under 0.1%.

For “YSQGTFTSDYSKYLDSCEADDFVQWLMNT (glucagon derivative) [SEQ ID NO: 7]”, the “In vitro Activity (Relative Activity of SEQ ID NO: 1, %)” value was under 0.1%.

For “YXQGTFCSDYSKYLDERRAKDFVQWLMNT (Y[Aib]QGTFCSDYSKYLDERRAKDFVQWLMNT; bridge 16-20) [SEQ ID NO: 41, glucagon derivative, X = Aib]”, the “In vitro Activity (Relative Activity of SEQ ID NO: 1, %)” value was 45.2%.

For “YXQGTFCSDYSKYLDERRAKEFVQWLMNT (Y[Aib]QGTFCSDYSKYLDERRAKEFVQWLMNT; bridge 16-20) [SEQ ID NO: 38, glucagon derivative, X = Aib]”, the “In vitro Activity (Relative Activity of SEQ ID NO: 1, %)” value was 167.3%.

In the case of “YXQGTFCSDYSKYLDSRRAQDFVQWLMNT (Y[Aib]QGTFCSDYSKYLDSRRAQDFVQWLMNT) [SEQ ID NO: 42, glucagon derivative, X = Aib]”, the “In vitro Activity (Relative Activity of SEQ ID NO: 1, %)” value is reported as 37.9%.

For “YXQGTFTSDCSKYLDERRAKEFVQWLMNT (Y[Aib]QGTFTSDCSKYLDERRAKEFVQWLMNT; bridge 16-20) [SEQ ID NO: 36, glucagon derivative, X = Aib]”, the “In vitro Activity (Relative Activity of SEQ ID NO: 1, %)” value was 9.9%.

For “YXQGTFTSDCSKYLDSRRAQDFVQWLMNT (Y[Aib]QGTFTSDCSKYLDSRRAQDFVQWLMNT) [SEQ ID NO: 43, glucagon derivative, X = Aib]”, the “In vitro Activity (Relative Activity of SEQ ID NO: 1, %)” value was 1.6%.

For “YXQGTFTSDYSCYLDSRRAQDFVQWLMNT (Y[Aib]QGTFTSDYSCYLDSRRAQDFVQWLMNT) [SEQ ID NO: 13, glucagon derivative, X = Aib]”, the “In vitro Activity (Relative Activity of SEQ ID NO: 1, %)” value was 5.2%.

For “YXQGTFTSDYSKCLDEKRAKEFVQWLMNT (Y[Aib]QGTFTSDYSKCLDEKRAKEFVQWLMNT; bridge 16-20) [SEQ ID NO: 24, glucagon derivative, X = Aib]”, the “In vitro Activity (Relative Activity of SEQ ID NO: 1, %)” value was 58.0%.

“YXQGTFTSDYSKCLDERRAKDFVQWLMNT (Y[Aib]QGTFTSDYSKCLDERRAKDFVQWLMNT; bridge 16-20) [SEQ ID NO: 29, glucagon derivative, X = Aib]” was tested, and the “In vitro Activity (Relative Activity of SEQ ID NO: 1, %)” value was 61.3%.

In the case of “YXQGTFTSDYSKYCDEKRAKEFVQWLMNT (Y[Aib]QGTFTSDYSKYCDEKRAKEFVQWLMNT; bridge 16-20) [SEQ ID NO: 23, glucagon derivative, X = Aib]”, the “In vitro Activity (Relative Activity of SEQ ID NO: 1, %)” value is reported as 76.8%.

With “YXQGTFTSDYSKYCDERRAKEFVQWLMNT (Y[Aib]QGTFTSDYSKYCDERRAKEFVQWLMNT; bridge 16-20) [SEQ ID NO: 35, glucagon derivative, X = Aib]” the “In vitro Activity (Relative Activity of SEQ ID NO: 1, %)” value was 17.7%.

In the case of “YXQGTFTSDYSKYLCEKRAKEFVQWLMNT (Y[Aib]QGTFTSDYSKYLCEKRAKEFVQWLMNT; bridge 16-20) [SEQ ID NO: 19, glucagon derivative, X = Aib]”, the “In vitro Activity (Relative Activity of SEQ ID NO: 1, %)” value is reported as 12.1%.

“YXQGTFTSDYSKYLCEKRAQDFVVWLMNT (Y[Aib]QGTFTSDYSKYLCEKRAQDFVVWLMNT) [SEQ ID NO: 15, glucagon derivative, X = Aib]” was tested, and the “In vitro Activity (Relative Activity of SEQ ID NO: 1, %)” value was 1.1%.

With “YXQGTFTSDYSKYLDCKRAKEFVQWLMNT (Y[Aib]QGTFTSDYSKYLDCKRAKEFVQWLMNT; bridge 17-21) [SEQ ID NO: 31, glucagon derivative, X = Aib]” the “In vitro Activity (Relative Activity of SEQ ID NO: 1, %)” value was 6.3%.

With “YXQGTFTSDYSKYLDCKRAKEFVQWLMNT [SEQ ID NO: 14] (Y[Aib]QGTFTSDYSKYLDCKRAKEFVQWLMNT; not fully specified) [glucagon derivative, X = Aib]” the “In vitro Activity (Relative Activity of SEQ ID NO: 1, %)” value was 18.1%.

“YXQGTFTSDYSKYLDCRRAQVFVQWLMRT (Y[Aib]QGTFTSDYSKYLDCRRAQVFVQWLMRT) [SEQ ID NO: 16, glucagon derivative, X = Aib]” was tested, and the “In vitro Activity (Relative Activity of SEQ ID NO: 1, %)” value was 4.2%.

In the case of “YXQGTFTSDYSKYLDCVRAQDFVQWLMRT (Y[Aib]QGTFTSDYSKYLDCVRAQDFVQWLMRT) [SEQ ID NO: 17, glucagon derivative, X = Aib]”, the “In vitro Activity (Relative Activity of SEQ ID NO: 1, %)” value is reported as 23.2%.

With “YXQGTFTSDYSKYLDECRAKEFVQWLMNT (Y[Aib]QGTFTSDYSKYLDECRAKEFVQWLMNT; bridge 16-20) [SEQ ID NO: 20, glucagon derivative, X = Aib]” the “In vitro Activity (Relative Activity of SEQ ID NO: 1, %)” value was 299.7%.

For “YXQGTFTSDYSKYLDEKCAKEFVQWLMNT [SEQ ID NO: 11] (Y[Aib]QGTFTSDYSKYLDEKCAKEFVQWLMNT; not fully specified) [glucagon derivative, X = Aib]”, the “In vitro Activity (Relative Activity of SEQ ID NO: 1, %)” value was 4.6%.

With “YXQGTFTSDYSKYLDEKCAKEFVQWLMNT [SEQ ID NO: 21] (Y[Aib]QGTFTSDYSKYLDEKCAKEFVQWLMNT; bridge 16-20) [glucagon derivative, X = Aib]” the “In vitro Activity (Relative Activity of SEQ ID NO: 1, %)” value was 57.8%.

With “YXQGTFTSDYSKYLDEKRAKCFVQWLMNT (Y[Aib]QGTFTSDYSKYLDEKRAKCFVQWLMNT; bridge 16-20) [SEQ ID NO: 25, glucagon derivative, X = Aib]” the “In vitro Activity (Relative Activity of SEQ ID NO: 1, %)” value was 46.9%.

For “YXQGTFTSDYSKYLDEKRAKEFVQWLMNTC (Y[Aib]QGTFTSDYSKYLDEKRAKEFVQWLMNTC; bridge 16-20) [SEQ ID NO: 12, glucagon derivative, X = Aib]”, the “In vitro Activity (Relative Activity of SEQ ID NO: 1, %)” value was 56.3%.

With “YXQGTFTSDYSKYLDEKRCKEFVQWLMNT (Y[Aib]QGTFTSDYSKYLDEKRCKEFVQWLMNT; bridge 16-20) [SEQ ID NO: 22, glucagon derivative, X = Aib]” the “In vitro Activity (Relative Activity of SEQ ID NO: 1, %)” value was 147.8%.

In the case of “YXQGTFTSDYSKYLDERRAKEFVQWLMNTC (Y[Aib]QGTFTSDYSKYLDERRAKEFVQWLMNTC; bridge 16-20) [SEQ ID NO: 37, glucagon derivative, X = Aib]”, the “In vitro Activity (Relative Activity of SEQ ID NO: 1, %)” value is reported as 225.5%.

“YXQGTFTSDYSKYLDSCDADDFVVWLINT (Y[Aib]QGTFTSDYSKYLDSCDADDFVVWLINT) [SEQ ID NO: 10, glucagon derivative, X = Aib]” was tested, and the “In vitro Activity (Relative Activity of SEQ ID NO: 1, %)” value was under 0.1%.

In the case of “YXQGTFTSDYSKYLDSCDAQDFVQWLINT (Y[Aib]QGTFTSDYSKYLDSCDAQDFVQWLINT) [SEQ ID NO: 8, glucagon derivative, X = Aib]”, the “In vitro Activity (Relative Activity of SEQ ID NO: 1, %)” value is reported as under 0.1%.

With “YXQGTFTSDYSKYLDSCDAQDFVVWLINT (Y[Aib]QGTFTSDYSKYLDSCDAQDFVVWLINT) [SEQ ID NO: 9, glucagon derivative, X = Aib]” the “In vitro Activity (Relative Activity of SEQ ID NO: 1, %)” value was under 0.1%.

“YXQGTFTSDYSKYLDSRRACDFRLWLMNT (Y[Aib]QGTFTSDYSKYLDSRRACDFRLWLMNT) [SEQ ID NO: 18, glucagon derivative, X = Aib]” was tested, and the “In vitro Activity (Relative Activity of SEQ ID NO: 1, %)” value was under 0.1%.

In the case of “YXQGTFTSDYSKYLDSRRAQDFVQWLMNT (Aib at position 2; glucagon derivative; (2) Xaa is aminoisobutyric acid (Aib)) [SEQ ID NO: 33, glucagon derivative, X = Aib]”, the “In vitro Activity (Relative Activity of SEQ ID NO: 1, %)” value is reported as 108.2%.
